In US20090202513A1, “RIBONUCLEASE AND THIAZOLIDINEDIONE COMPOUNDS AND THEIR USE IN METHODS TO TREAT CANCER” (The University of Vermont and State Agriculture College, priority 2008, published 2009):
Entries after “also recorded” stand apart in the source; their conditions may differ.

Key:
[1] = tested on: NCI-H292 lung cancer cell line; experiment: MTS viability of cells transfected with siFra-1 or scramble control (siC); type: cell-based, human; conditions: 48 h
Procedure: Assays were performed on 96-well microtiter plates after plating of 7.7×10^4 cells/well. […] Cell viability was measured by the colorimetric methoxy-tetrazolium salt (MTS) Assay, CellTiter 96 Aqueous One Solution Cell Proliferation Assay (Promega), per the manufacturer's recommendations. MTS is a tetrazolium salt that undergoes a color change caused by its bioreduction of MTS into a water-soluble formazan. The conversion of MTS into the aqueous-soluble formazan is accomplished by dehydrogenase enzymes found in active mitochondria, with reaction occurring only in living cells. The quantity of formazan product measured by the amount of 490-nm light absorbance is directly proportional to the number of living cells in culture. Briefly, 20 μl of MTS reagent was added per well, and plates incubated at 37° C. for 2-3 h. Finally, the absorbance of each well was read at 490 nm and 650 nm. ΔOD from these two wavelengths were reported as the corrected viability. Fold changes were calculated with respect to the control as a measure of cell viability.
siFra-1 RNA interference (RNAi) duplexes were constructed from sequence information on mature mRNA extracted from the EST database available through the National Center for Biotechnology Information internet site using the open frame region from the cDNA sequence of exon 2 of the Fra-1 gene. The siRNA pool sequences targeting Fra-1 corresponded to the 107-126, 124-143, 230-249 coding regions relative to the first nucleotide of the start codon. The sequences were BLAST-searched (NCBI database) against EST libraries to ensure the specificity of the siRNA molecule. The siRNA duplexes or a scramble control were transfected into cancer lines using Lipofectamine 2000 (Invitrogen) as recommended by the manufacturer. Cells were incubated with complexes overnight, and the medium was replaced the next day. Cells were allowed to recover for 48 hours before treatments.
Cells were transfected with siFra-1 or scramble control (siC) and left to rest for 48 h before treatment. […] The PPARγ inhibitor GW9662 (2 μM) was added to observe the influence of PPARγ.

[2] = i.v. 2.5 mg/kg, twice a week for 2 weeks; previous studies, personal communication; cited from earlier work

Molecule	influence of PPARγ antagonist on the synergistic effect of ranpirnase and rosiglitazone ([1]; GW9662 2 μM added to the combination)	effect of Fra-1 knock-down (siFra-1 vs siC) on efficacy / cell killing of the single drug ([1]; ranpirnase 0.1, 1 or 10 μg/mL, rosiglitazone 10 or 20 μM)	cell viability (MTS) ([1]; ranpirnase 0.1, 1 or 10 μg/mL)	apoptosis induction in vivo [2]	toxicity to the animals [2]
O=C(Nc1ccccc1)c1cc([N+](=O)[O-])ccc1Cl [GW9662, reference compound]	did not significantly modify the synergistic effect of ranpirnase and rosiglitazone				
ranpirnase (protein, UniProt P22069 1-104, looked up, RNase extracted from Rana pipiens, the Northern leopard frog; registered trademark name ONCONASE™) Protein P-30: QDWLTFQKKHITNTRDVDCDNIMSTNLFHCKDKNTFIYSRPEPVKAICKGIIASKNVLTTSEFYLSDCNVTSRPCKYKLKKSTNKFCVTCENQAPVHFVGVGSC		significantly increased the efficacy of ranpirnase alone at all concentrations; also recorded: increases cell killing by ranpirnase (0.1, 1, or 10 μg/mL) in a concentration-dependent manner	reduced viability in a dose-dependent manner	effective in producing apoptosis	non-toxic to the animals
